Source: PMC11027793 (Molecular cell, 2022)
Where two headings read alike, the source gives them in different places. One block for each binder: values may come before it. Where no end group is shown, it is not given here. MBP = not defined here

B4: GST-Mios Ring (785–875) (domain or fragment, UniProt Q9NXC5 785-875, looked up)
chain: CALCLINMGTPVSSCPGGTKSDEKVDLSKDKKLAQFNNWFTWCHNCRHGGHAGHMLSWFRDHAECPVSACTCKCMQLDTTGNLVPAETVQP

Columns and labels:
Test in all cases: pull-down
GST-Mios Ring (785–875) = biological target: B4
GST-WDR59 wild-type = biological target: T1, GST-WDR59 wild-type (UniProt Q6PJI9 1-974)
T1 sequence (looked up): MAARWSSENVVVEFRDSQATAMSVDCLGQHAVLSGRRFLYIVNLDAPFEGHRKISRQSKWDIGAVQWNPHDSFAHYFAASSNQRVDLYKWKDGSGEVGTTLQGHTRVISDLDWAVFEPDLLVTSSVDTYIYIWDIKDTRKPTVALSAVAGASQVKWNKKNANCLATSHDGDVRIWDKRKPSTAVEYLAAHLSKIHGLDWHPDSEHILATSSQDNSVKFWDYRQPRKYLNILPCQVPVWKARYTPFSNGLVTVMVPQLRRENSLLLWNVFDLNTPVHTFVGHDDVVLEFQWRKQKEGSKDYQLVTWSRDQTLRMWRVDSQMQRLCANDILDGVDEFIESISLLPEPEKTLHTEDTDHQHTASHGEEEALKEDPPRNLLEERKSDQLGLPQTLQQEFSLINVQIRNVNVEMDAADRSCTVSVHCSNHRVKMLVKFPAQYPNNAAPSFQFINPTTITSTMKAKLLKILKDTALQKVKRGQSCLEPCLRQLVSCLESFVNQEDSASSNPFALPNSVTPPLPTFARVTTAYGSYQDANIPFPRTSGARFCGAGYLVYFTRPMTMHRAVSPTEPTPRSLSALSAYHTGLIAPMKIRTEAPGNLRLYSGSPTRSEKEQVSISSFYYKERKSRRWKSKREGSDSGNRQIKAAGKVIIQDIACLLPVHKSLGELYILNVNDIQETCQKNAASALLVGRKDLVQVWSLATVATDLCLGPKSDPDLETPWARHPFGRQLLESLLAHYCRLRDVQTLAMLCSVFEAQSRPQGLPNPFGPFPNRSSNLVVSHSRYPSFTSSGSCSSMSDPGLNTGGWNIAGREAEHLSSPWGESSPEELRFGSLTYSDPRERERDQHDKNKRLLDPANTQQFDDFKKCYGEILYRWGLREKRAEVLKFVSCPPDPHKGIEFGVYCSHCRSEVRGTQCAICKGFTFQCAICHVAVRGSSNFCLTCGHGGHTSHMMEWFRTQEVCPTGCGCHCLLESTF

[1] = biological target: T2, Flag-WDR59 purified from HEK293T cells (UniProt Q6PJI9 1-974)
T2 sequence (looked up): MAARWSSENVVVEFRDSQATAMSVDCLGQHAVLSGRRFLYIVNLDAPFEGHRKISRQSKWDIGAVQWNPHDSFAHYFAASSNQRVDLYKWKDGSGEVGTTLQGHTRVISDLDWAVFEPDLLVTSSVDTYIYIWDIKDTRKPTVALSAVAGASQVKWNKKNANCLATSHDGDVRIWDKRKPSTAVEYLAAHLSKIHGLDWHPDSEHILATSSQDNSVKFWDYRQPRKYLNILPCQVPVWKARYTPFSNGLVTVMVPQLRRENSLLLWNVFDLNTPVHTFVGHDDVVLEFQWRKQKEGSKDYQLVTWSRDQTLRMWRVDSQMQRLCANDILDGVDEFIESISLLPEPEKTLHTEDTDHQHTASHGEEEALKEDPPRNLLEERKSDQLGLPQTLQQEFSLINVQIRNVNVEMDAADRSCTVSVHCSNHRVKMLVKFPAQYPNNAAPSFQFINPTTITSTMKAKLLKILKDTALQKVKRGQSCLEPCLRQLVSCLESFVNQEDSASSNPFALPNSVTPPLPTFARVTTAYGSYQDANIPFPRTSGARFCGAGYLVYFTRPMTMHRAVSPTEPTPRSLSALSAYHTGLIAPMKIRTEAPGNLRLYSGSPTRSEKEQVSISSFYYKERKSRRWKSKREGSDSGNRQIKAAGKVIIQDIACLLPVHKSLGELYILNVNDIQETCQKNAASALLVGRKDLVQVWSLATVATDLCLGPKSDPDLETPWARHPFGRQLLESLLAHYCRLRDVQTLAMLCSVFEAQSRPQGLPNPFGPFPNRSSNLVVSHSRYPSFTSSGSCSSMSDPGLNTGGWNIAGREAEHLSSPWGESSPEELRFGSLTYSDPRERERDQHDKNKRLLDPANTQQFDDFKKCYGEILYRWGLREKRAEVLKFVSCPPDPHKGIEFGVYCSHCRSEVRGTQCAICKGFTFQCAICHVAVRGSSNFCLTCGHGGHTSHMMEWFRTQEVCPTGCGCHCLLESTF

[2] = biological target: T3, Flag-WDR24 purified from HEK293T cells (UniProt Q96S15 1-790)
T3 sequence (looked up): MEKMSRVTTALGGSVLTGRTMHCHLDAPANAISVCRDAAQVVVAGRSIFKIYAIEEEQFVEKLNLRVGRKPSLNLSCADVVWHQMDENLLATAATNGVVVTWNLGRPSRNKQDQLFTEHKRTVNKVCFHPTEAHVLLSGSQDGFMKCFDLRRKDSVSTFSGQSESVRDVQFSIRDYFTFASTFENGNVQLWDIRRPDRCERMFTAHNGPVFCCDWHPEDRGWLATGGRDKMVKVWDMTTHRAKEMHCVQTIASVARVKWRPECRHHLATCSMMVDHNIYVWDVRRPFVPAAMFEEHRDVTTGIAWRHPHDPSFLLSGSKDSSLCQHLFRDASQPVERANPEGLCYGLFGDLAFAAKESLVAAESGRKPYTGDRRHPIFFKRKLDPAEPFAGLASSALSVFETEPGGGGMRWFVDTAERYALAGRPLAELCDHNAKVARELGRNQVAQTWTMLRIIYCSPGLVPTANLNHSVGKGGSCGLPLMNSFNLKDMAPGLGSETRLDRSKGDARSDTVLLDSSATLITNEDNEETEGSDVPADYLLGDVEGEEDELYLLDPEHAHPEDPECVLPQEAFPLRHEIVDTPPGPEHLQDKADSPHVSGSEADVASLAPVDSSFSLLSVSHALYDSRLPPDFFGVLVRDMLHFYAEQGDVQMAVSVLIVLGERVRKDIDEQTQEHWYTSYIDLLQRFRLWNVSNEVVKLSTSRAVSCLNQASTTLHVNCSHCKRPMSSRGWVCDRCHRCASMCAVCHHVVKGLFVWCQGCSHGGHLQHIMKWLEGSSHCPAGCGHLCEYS

[3] = biological target: T4, GST-WDR24 wild-type (full-length) (UniProt Q96S15 1-790)
T4 sequence (looked up): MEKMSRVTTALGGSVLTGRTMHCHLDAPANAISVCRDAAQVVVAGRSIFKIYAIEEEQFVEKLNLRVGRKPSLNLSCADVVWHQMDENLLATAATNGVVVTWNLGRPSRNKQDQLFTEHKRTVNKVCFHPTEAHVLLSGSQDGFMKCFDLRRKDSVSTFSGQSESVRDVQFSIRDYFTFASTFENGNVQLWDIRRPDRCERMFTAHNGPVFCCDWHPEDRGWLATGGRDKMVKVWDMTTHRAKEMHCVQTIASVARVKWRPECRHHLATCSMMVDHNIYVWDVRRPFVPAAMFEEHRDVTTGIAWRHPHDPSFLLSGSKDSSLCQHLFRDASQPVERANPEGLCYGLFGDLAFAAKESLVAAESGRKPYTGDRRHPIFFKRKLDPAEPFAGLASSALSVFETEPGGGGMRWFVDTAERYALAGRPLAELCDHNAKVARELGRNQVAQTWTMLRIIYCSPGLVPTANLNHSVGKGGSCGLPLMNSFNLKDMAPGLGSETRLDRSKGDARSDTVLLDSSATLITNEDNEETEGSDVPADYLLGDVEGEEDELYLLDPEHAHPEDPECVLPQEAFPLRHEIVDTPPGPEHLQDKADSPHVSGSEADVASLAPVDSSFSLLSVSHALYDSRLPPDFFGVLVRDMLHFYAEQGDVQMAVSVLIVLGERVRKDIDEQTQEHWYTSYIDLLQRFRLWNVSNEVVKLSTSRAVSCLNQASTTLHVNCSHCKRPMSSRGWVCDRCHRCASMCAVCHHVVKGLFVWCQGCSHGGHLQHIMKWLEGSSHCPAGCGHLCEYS

[4] = biological target: T3, Flag-WDR24 purified from HEK293T cells; remark: listed apart in the source

binding result (GST-Mios Ring (785–875)): binds
B1: His-MBP-WDR24 Ring (743–790) (domain or fragment, UniProt Q96S15 743-790, looked up)
chain: {His-MBP}-CAVCHHVVKGLFVWCQGCSHGGHLQHIMKWLEGSSHCPAGCGHLCEYS
modifications: cysteine pairing not given here; reading uncertain

binding result (GST-WDR59 wild-type): binds
B2: Flag-Mios purified from HEK293T cells (natural protein, UniProt Q9NXC5 1-875, looked up)
chain: MSGTKPDILWAPHHVDRFVVCDSELSLYHVESTVNSELKAGSLRLSEDSAATLLSINSDTPYMKCVAWYLNYDPECLLAVGQANGRVVLTSLGQDHNSKFKDLIGKEFVPKHARQCNTLAWNPLDSNWLAAGLDKHRADFSVLIWDICSKYTPDIVPMEKVKLSAGETETTLLVTKPLYELGQNDACLSLCWLPRDQKLLLAGMHRNLAIFDLRNTSQKMFVNTKAVQGVTVDPYFHDRVASFYEGQVAIWDLRKFEKPVLTLTEQPKPLTKVAWCPTRTGLLATLTRDSNIIRLYDMQHTPTPIGDETEPTIIERSVQPCDNYIASFAWHPTSQNRMIVVTPNRTMSDFTVFERISLAWSPITSLMWACGRHLYECTEEENDNSLEKDIATKMRLRALSRYGLDTEQVWRNHILAGNEDPQLKSLWYTLHFMKQYTEDMDQKSPGNKGSLVYAGIKSIVKSSLGMVESSRHNWSGLDKQSDIQNLNEERILALQLCGWIKKGTDVDVGPFLNSLVQEGEWERAAAVALFNLDIRRAIQILNEGASSEKGDLNLNVVAMALSGYTDEKNSLWREMCSTLRLQLNNPYLCVMFAFLTSETGSYDGVLYENKVAVRDRVAFACKFLSDTQLNRYIEKLTNEMKEAGNLEGILLTGLTKDGVDLMESYVDRTGDVQTASYCMLQGSPLDVLKDERVQYWIENYRNLLDAWRFWHKRAEFDIHRSKLDPSSKPLAQVFVSCNFCGKSISYSCSAVPHQGRGFSQYGVSGSPTKSKVTSCPGCRKPLPRCALCLINMGTPVSSCPGGTKSDEKVDLSKDKKLAQFNNWFTWCHNCRHGGHAGHMLSWFRDHAECPVSACTCKCMQLDTTGNLVPAETVQP

binding result [1]: binds
B3: GST-fusion protein of full-length wild-type Mios (natural protein, UniProt Q9NXC5 1-875, looked up)
chain: MSGTKPDILWAPHHVDRFVVCDSELSLYHVESTVNSELKAGSLRLSEDSAATLLSINSDTPYMKCVAWYLNYDPECLLAVGQANGRVVLTSLGQDHNSKFKDLIGKEFVPKHARQCNTLAWNPLDSNWLAAGLDKHRADFSVLIWDICSKYTPDIVPMEKVKLSAGETETTLLVTKPLYELGQNDACLSLCWLPRDQKLLLAGMHRNLAIFDLRNTSQKMFVNTKAVQGVTVDPYFHDRVASFYEGQVAIWDLRKFEKPVLTLTEQPKPLTKVAWCPTRTGLLATLTRDSNIIRLYDMQHTPTPIGDETEPTIIERSVQPCDNYIASFAWHPTSQNRMIVVTPNRTMSDFTVFERISLAWSPITSLMWACGRHLYECTEEENDNSLEKDIATKMRLRALSRYGLDTEQVWRNHILAGNEDPQLKSLWYTLHFMKQYTEDMDQKSPGNKGSLVYAGIKSIVKSSLGMVESSRHNWSGLDKQSDIQNLNEERILALQLCGWIKKGTDVDVGPFLNSLVQEGEWERAAAVALFNLDIRRAIQILNEGASSEKGDLNLNVVAMALSGYTDEKNSLWREMCSTLRLQLNNPYLCVMFAFLTSETGSYDGVLYENKVAVRDRVAFACKFLSDTQLNRYIEKLTNEMKEAGNLEGILLTGLTKDGVDLMESYVDRTGDVQTASYCMLQGSPLDVLKDERVQYWIENYRNLLDAWRFWHKRAEFDIHRSKLDPSSKPLAQVFVSCNFCGKSISYSCSAVPHQGRGFSQYGVSGSPTKSKVTSCPGCRKPLPRCALCLINMGTPVSSCPGGTKSDEKVDLSKDKKLAQFNNWFTWCHNCRHGGHAGHMLSWFRDHAECPVSACTCKCMQLDTTGNLVPAETVQP

Binder: B4
binding result [2]: binds
binding result [1]: binds

binding result [3]: binds
B5: Flag-Sestrin2 (pRK5-FLAG-Sestrin2) (natural protein, UniProt P58004 1-480, looked up)
chain: MIVADSECRAELKDYLRFAPGGVGDSGPGEEQRESRARRGPRGPSAFIPVEEVLREGAESLEQHLGLEALMSSGRVDNLAVVMGLHPDYFTSFWRLHYLLLHTDGPLASSWRHYIAIMAAARHQCSYLVGSHMAEFLQTGGDPEWLLGLHRAPEKLRKLSEINKLLAHRPWLITKEHIQALLKTGEHTWSLAELIQALVLLTHCHSLSSFVFGCGILPEGDADGSPAPQAPTPPSEQSSPPSRDPLNNSGGFESARDVEALMERMQQLQESLLRDEGTSQEEMESRFELEKSESLLVTPSADILEPSPHPDMLCFVEDPTFGYEDFTRRGAQAPPTFRAQDYTWEDHGYSLIQRLYPEGGQLLDEKFQAAYSLTYNTIAMHSGVDTSVLRRAIWNYIHCVFGIRYDDYDYGEVNQLLERNLKVYIKTVACYPEKTTRRMYNLFWRHFRHSEKVHVNLLLLEARMQAALLYALRAITRYMT

binding result [3]: binds
binding result [4]: binds
B6: His6-tag UBE2D3 (enzyme)
chain: not shown

binding result (GST-Mios Ring (785–875)): binds
B7: His-MBP-WDR59 Ring (924–974) (domain or fragment, UniProt Q6PJI9 924-974, looked up)
chain: {His-MBP}-CAICHVAVRGSSNFCLTCGHGGHTSHMMEWFRTQEVCPTGCGCHCLLESTF
modifications: cysteine pairing not given here; reading uncertain
